The record followed here is patent publication US20260069689A1 (Regeneron, published 2026).

Changes are numbered by the printed parent chain.

B1: mAb14230 (antibody, V domains shown)
VH: EVQLVESGGGLIQPGRSLRLSCAASGFTFDDYAMHWVRQAPGKGLEWVSGISWNSVSIDYADSVKGRFTISRDNAKNSLYLQMTSLTVEDTALYYCAKAFGYETLTGSDYFAYWGPGTLVTVSS
VL: EIVLTQSPGTLSLSPGERATLSCRASQTVISTYLAWYQQKPGQSPRLLIYGASSRATGIPDRFSGSGSGTDFTLTISRLEPEDFAVYYCQQYGSSPQLTFGGGTKVEIKR
B2: mAb14256 (antibody, V domains shown)
VH: QVQLQESGPGLVKPSETLSLTCTVSGGSISSHYWSWIRQPPGKGLEWIGYIYYSGSSNYNPSLKSRVTISVDTSKNQFSLKLNSVTAADTAVYYCARHYDILTGFDWFDPWGQGTLVTVSS
VL: QSVLTQPPSVSGAPGQRVTISCTGSSSNIGTHYDVHWYQQLPGTAPKLLIYGNSNRPSGVPDRFSGSKSGTSASLAITGLQAEDEADYYCQSFDNSLTAPYVFGTGTKVTVLG
B3: mAb14281 (antibody, V domains shown)
VH: QVQLVQSGADVKKPGASVKVSCKTSGYIFTGYYIHWVRQAPGQGLEWMGWINPNSGGTNSAQKFQGRVTMTRDTSISTVYMELSRLRSDDTAVYYCAKSNSFSVLDYNFDYWGQGTLVTVSS
VL: SSELTQDPAVSVALGQTVRITCQGDSLRSYYASWYQQKPGQAPVLVIYDKNNRPSGIPDRFSGSSSGNTASLTITGAQAEDEADYYCNSRDSSRNHLVVFGGGTKLTVLG
B4: mAb14280 (antibody, V domains shown)
VH: QVQLVQSGAEVKKPGASVRVSCKASGYTFTGNYIHWVRQAPGQGLEWMAWINPNSGGKNYAQKFQGRVTLTRDTSVNTAYMELSRLRSDDTAMYYCARDVNYNILTGPGGLWGQGTLVTVSS
VL: QSALTQPPSASGSPGQSVTISCTGTSSDVGGYNFVSWYQQHPGKAPKLMIYEVSKRPSGVPDRFSGSKSGNTASLTVSGLQAEDEADYYCSSYAGSNNFVFGTGTKVTVLG
B5: mAb14286 (antibody, V domains shown)
VH: QVQLVQSGAEVKKPGASVKVSCKASGYTFTDYFIHWVRQAPGQGLEWMGWINPTSGGTNYAQKFRGRVTMTRDTSISTAYVELSRLRSDDTALYYCARDLPFYSDTKQFDYWGQGTLVTVSS
VL: QSALTQPASVSGYPGQSITISCTGTSSDVGGYNYVSWYQQHPGKAPKLMIFDVSNRPSGVSNRFSGSKSGNTASLTFSGLQAEDEADYYCSSYTSSSTLVFGGGTKLTVLG
B6: mAb15156 (antibody, V domains shown)
VH: QLQLQESGPGLVKSSETLSLTCTVSASITGSTYYWGWIRQPPGKGLEWIGSIYYSGTTYYKASLKSRVTISVDTSKNQFSLKLTSVTVADTAVYYCVSHLLGNYHKYGMDVWGQGTTVTVSS
VL: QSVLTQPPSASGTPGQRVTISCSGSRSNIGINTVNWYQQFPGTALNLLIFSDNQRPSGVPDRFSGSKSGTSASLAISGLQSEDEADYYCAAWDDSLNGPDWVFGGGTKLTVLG
B7: mAb14292 (antibody, V domains shown)
VH: EVQLVESGGGLVQPGGSLRLSCVASGFAFSTYEMNWVRQAPGKGLEWVSYISSSGSTIYYADSVKGRLTISRDNVKNSLYLQMNSLRVEDTAIYYCARDAIRNNDILTDPATFDPWGQGTLVTVSS
VL: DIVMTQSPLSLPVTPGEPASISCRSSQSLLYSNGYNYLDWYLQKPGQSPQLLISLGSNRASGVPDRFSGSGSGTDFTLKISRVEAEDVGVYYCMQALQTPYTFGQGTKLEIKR
B8: mAb14285 (antibody, V domains shown)
VH: QVQLVQSGAEVKKPGASVKVSCKASGYTFTGYFIHWVRQAPGQGLEWMGWISPISGGTNYAQKFQGRVTVTRDTSITTAYMELSRLTSDDTAVYHCAREGGTWKGDFDYWGQGTLVTVSS
VL: QSALTQPASVSGSPGQSITISCTGTSSDVESYNLVSWYQQHPGKAPKLMIYEGSKRPSGVSNRFSGSKSGNTASLTISGLQAEDEADYYCSSYAGSSTWVFGGGTKLTVLG
B9: mAb14234 (antibody, V domains shown)
VH: QVQLVESGGGVVQPGRSLRLSCAASGFTFSSYGIHWVRQAPGKGLEWVAIIWYDGSEKYYADSVKGRFTISRDNSKNTLFLQMNSLEAEDTAVYYCARGPDLLTGYYNYFYYGMDVWGQGTTVTVSS
VL: QSVLTQPPSVSGAPGQRVTISCTGSSSNIGIGYDVHWYQQLPGTVPKLLIYGNTNRPSGVPDRFSGSKSGTSASLAITGLQAEDEADYYCQSYDSSLSSYVFGTGTKVTVLG
B10: mAb14282 (antibody, V domains shown)
VH: QVQLVQSGAEVKKPGASVKVSCKASGYIFTDHYMHWVRQAPGQGLEWMGWINPNSGATNYAQNFQGRVTMTRDTSIITVYMELSRLRSDDTAVYYCARDSSPYMIRYTMDVWGQGTTITVSS
VL: QSALTQPASVSGSPGQSITISCTGTSSDVGSYNLVSWYQQHPGKAPKLMIYELTKRPSGVSNRFSGSKSGNTASLTISGLQAEDEADYYCSSYRGSVTDVVFGGGTKLTVLG
B11: mAb15151 (antibody, V domains shown)
VH: QVQLVESGGGVVQPGRSLRLSCAASGFVFNSYGMHWVRQAPGKGLEWVAVLWYEGSKNYYADSVKGRFTISRDNSKNTLYLQMNSLRAEDTAVYYCARHGSGSFFGYYLDYWGQGTLVTVSS
VL: DIQMTQSPSSLSASVGDRVTITCRASHNINDFLNWYQQKPGKAPRLLIYAASSLQSGVPSRFSGSGSGTDFTLTISSLQPEDFATYYCQESYTTPPTFGQGTKLEIKR
B12: mAb15170 (antibody, V domains shown)
VH: EVQLVESGGGLVQPGGSLRLSCAATGITVSSNYMSWVRQAPGKGLEWVSLIYSGGSTFYADSVKGRFTISRHNSKNTLYLQMSSLRAEDTAVYYCARDLVDFGMDVWGQGTTVTVSS
VL: DIQLTQSPSSLSASVGDRVTITCRASQGISNYLAWYQQKPGKAPKLLIYAASTLQSGVPSRFSGSGSGTDFTLTISSLQPEDFGTYYCQQLNSDSPTFGQGTKVEIKR
B13: mAb15163 (antibody, V domains shown)
VH: EVQLVETGGGLIQPGESLRLSCAASGFIVSTNYMNWVRQAPGKGLEWVSVIYRGGSTYYADSVKGRFTISRDNSKNTLFLQMNSLRAEDTAVYYCARGHEDFDYDTPASGAFDIWGQGTMVTVSS
VL: B4 VL with Y32H, F34Y, L48V, N98K
B14: mAb15150 (antibody, V domains shown)
VH: EVQLVETGGGLIQPGGSLRLSCAAPGFIVSSNYMSWVRQAPGKGLEWVSLLYPGGSTYYADSVKGRFTISRDNSKNTLYLQMNSLRADDTAVYYCARVLPIVEDHFDYWGQGTLVTVSS
VL: DIQLTQSPSFLSASVGDRVTITCRASQGMSSYLAWYQKKPGKAPKLLIYGATILQSGVPSRFSGSGSGTEFTLTISSLQPEDFATYYCQQLNSDPLYMYTFGQGTKLEIKR
B15: mAb15164 (antibody, V domains shown)
VH: EVQLVESGGGLVQPGGSLRLSCAASGFAVSSNYMTWVRQAPGKGLEWVATIYSGDSTYYADSVKGRFTISRHNSKNTLSLQMNSLRADDTAIYYCARLSGVLSGTYNGAFDIWGQGTMVTVSS
VL: B8 VL with V29F, E30G, S31N, L34I, K44Q, L48V, S54N, N71H
B16: mAb15165 (antibody, V domains shown)
VH: EVQLVESGGGLVQPGGSLRLSCAASGFTVSSNYMSWVRQAPGKGLEWVSAIYSGDSTYYADSVKGRFTISKDNSKNTLYLQMNSLRGEDTAVYYCARLGGALQAYDGAFDYWGQGTLATVSS
VL: B8 VL with V29F, E30G, S54N, N62I
B17: mAb15166 (antibody, V domains shown)
VH: EVQLVESGGGLVQPGGSLRLSCAASGFTVTSNYMSWVRQAPGKGLEWVSAIYSGESTYYADSVKGRFTISRDSSKNTLYLQMNSLRVEDTAVYYCASIHDYSNYVGGFDPWGQGTLVTVSS
VL: B8 VL with T25P, V29F, E30G, S54T

The first assay deals with SARS-COV-2 RBD extracellular domain expressed with a C-terminal myc-myc-hexahistidine tag (SARS-CoV-2). Nature of the assay: SPR (Biacore), mAb captured by anti-human Fc, RBD-mmH in solution, 25 C.
In turn, B1 returned a Kd of 7.51 nM, a koff of 0.00852 s⁻¹, a kon of 1.13e+06 M⁻¹ s⁻¹ and a t½ of 1.4 min.

Molecule B2 came in with a Kd of 8.32 nM, a koff of 0.00927 s⁻¹, a kon of 1.11e+06 M⁻¹ s⁻¹ and a t½ of 1.2 min.

B3 had a Kd of 5.02 nM, a koff of 0.00554 s⁻¹, a kon of 1.1e+06 M⁻¹ s⁻¹ and a t½ of 2.1 min.

In the case of B4, the Kd came to 15.4 nM, the koff was 0.0255 s⁻¹, the kon was found to be 1.66e+06 M⁻¹ s⁻¹ and the t½ was 0.5 min.

B5 showed a Kd of 3.22 nM, a koff of 0.0104 s⁻¹, a kon of 3.23e+06 M⁻¹ s⁻¹ and a t½ of 1.1 min.

The molecule B6 yielded a Kd of 4.18 nM, a koff of 0.00121 s⁻¹, a kon of 289000 M⁻¹ s⁻¹ and a t½ of 9.6 min.

B7 registered a Kd of 40.9 nM, a koff of 0.0171 s⁻¹, a kon of 417000 M⁻¹ s⁻¹ and a t½ of 0.7 min.

B8 gave a Kd of 11.7 nM, a koff of 0.0211 s⁻¹, a kon of 1.8e+06 M⁻¹ s⁻¹ and a t½ of 0.5 min.

B9 showed a Kd of 20.5 nM, a koff of 0.0113 s⁻¹, a kon of 550000 M⁻¹ s⁻¹ and a t½ of 1 min.

Turning to B10, the Kd was found to be 4.97 nM, the koff was found to be 0.00957 s⁻¹, the kon turned out to be 1.93e+06 M⁻¹ s⁻¹ and the t½ was determined as 1.2 min.

The target in the next assay is SARS-COV-2 RBD extracellular domain expressed with a C-terminal myc-myc-hexahistidine tag (SARS-COV-2 RBD-mmH) (SARS-CoV-2). Nature of the assay: SPR Biacore, mAb captured on anti-hFc, RBD-mmH analyte, 37 C. For orientation: In SPR one partner is held on a chip, and binding of the other changes the refractive index at the surface.
Molecule B11 had a Kd of 24.6 nM, a koff of 0.00442 s⁻¹, a kon of 180000 M⁻¹ s⁻¹ and a t½ of 2.6 min.

With B12, binding was put at a Kd of 0.297 nM, the koff was 8.36e-05 s⁻¹, the kon was 283000 M⁻¹ s⁻¹ and the t½ is 138 min.

Turning to B13, the affinity, expressed as Kd, was 1.78 nM; the koff was found to be 0.000387 s⁻¹; the kon was 218000 M⁻¹ s⁻¹; the t½ is 29.9 min.

As for B14, the Kd amounted to 0.158 nM, the koff was 7.84e-05 s⁻¹, the kon came to 493000 M⁻¹ s⁻¹ and the t½ worked out at 147 min.

B15 showed a Kd of 6.33 nM, a koff of 0.00179 s⁻¹, a kon of 283000 M⁻¹ s⁻¹ and a t½ of 6.5 min.

With B16, the Kd came out at 3.1 nM, the koff came to 0.00147 s⁻¹, the kon was 475000 M⁻¹ s⁻¹ and the t½ worked out at 7.9 min.

The molecule B17 returned a Kd of 95.3 nM, a koff of 0.0334 s⁻¹, a kon of 350000 M⁻¹ s⁻¹ and a t½ of 0.3 min.

The term Kd denotes a measure of binding affinity in units of concentration. The low end stands for tighter binding, the high end for weaker binding. Usually koff stands for the rate constant with which the complex falls apart. Lower therefore signals slow dissociation. A word on the kon: it is the second-order rate constant of association. The t½ is the time needed for the level to fall by half in the phase considered.
